Test results published in the DeepSol protein solubility set.

Test: soluble on expression in E. coli; label from the status in PepcDB or PDB records

Soluble on expression in E. coli, not soluble:
MGSDKIHHHHHHMYLGIDVGGTHTDAVVLDAQKRIQAWAKVPTLHHDLLSSVTQALDSVLQSVAAQDIVRLNLSTTLSTNAIVESKTEDVGVLVSSGPGIDPENFRQGGFFFPLSGSIDHRGKVIAAMEQDELAAAVRRCCDSGIRVYAAVGKFSTRNPDHEETMAHEAMQCGDFVSMGHRLSGQLSFPRRVATAYYNSAVWRLYNSFADAVESSARAKGVTAPVHILKADGGTMPLAVSRRMPVESILSGPAASVMGIVALYDIREDAVILDIGGTTTDIALFASGSPVIENDGISVGSYPTLVRALRTLSIGVGGDSRLRIAAGAVRVGPDRSGPCVANGGTHVALMDAMNYLEVAAVGDVEASREAVRQLASLWDMYPEKLAREALDTAVNTICAAVDRLLDEVNAQPVYTIIELLDGVKLNPGRVFVMGGPAAAFAPLLRNVMNRRIDVPRDHAVANAVGAALTRTTAELELFADTEKGLVFVPTLGLRREAPLGYNLDDAVADAGRYLTESLAGMGIHIRPEDVDVLEAGSFNMVDMYGGKGRNIRVKCQVRPGISL
MGSDKIHHHHHHMYLKVYKEDVIEGLQKAANIIPAKTGAAYLRSIWLNAADGTLSVMATDSNIEFRGTYTAEVTEPGLAGVQGRAFVDLLRKLPAGEIVLQLDAEANVLRIEQGRRKYKLPVNDPVWFQNFSDFPADGAVVWSGDFLQELIDRIAFCISDEDAVEAIACLFMKPVAEGRIEACGLNGHQFAMLRFLHDDLHAKLPAEGVLVQKKYLGELKKWLGADEIELNISEKRMHLRTGDGRETFSLPLSSYQYPDYMNFIAKLQGEGVSNLEVDRKEGMDALDRLQIFNSDNNRCTYFDLSGGEVVLTAQGQDVGSASESLEASYDGDIRRIAFPTRNLIDIMNHYQSGRLRLTLTGAEGPCGISGEEDPEYQVIVMPMKIVEETYYSEEEV
MGSDKIHHHHHHMYLVEVFFTYRQPQKLPISNISYLINQIIEQWRYNGQIIGREIPLFVAVQNNEEGFALRVTCPEQQSLLPTFNNIQVDKALKQAKSAGIFFDSFQIIADDLNSDITYSKEVATWQVLYTTYLQSCSPLHSGDNLLPIPLYKQFKNIPHLSMDIIKWQENWQACDQLQMNGSILEQQALYEISDFNSHLTKHGYYLTQEIEKHTGIPTFYYLYRIGGDDLQSEQQRLCPNCQQKWHLDKPLFNLFHFKCDHCRLVSNLSWHWQ
MGSDKIHHHHHHMYNNINYKVLWGHSEYDGSFEIMEFRQLSYFISVAKYLSFTKAAEEHHIAQTAISQQISTLEKQLNVKLFVRNNRAVELTDAGRVLLKEADLITSRVVEAERKTKQAALGFEGSLNVGILGSSEKNFLPVILKRFHKLYPKIGINLSRNSYKKLADDMKGGHLDITFIFPYELNDISHVKYRKLFDYEICLVVNKEHRLARYKKIDVKEIKNEKFIVVGKEEAPSTVKQMRKNCMGDGFKLNVVAECKNLDTMLIMVEAGMGVALVPTCVANDSNNNISYIELENSKQIVEIGVAWMEGNMNPTLKLFLGVLSDLYWDN
MGSDKIHHHHHHMYVAVKGGEKAIRAAHALQEQKRRGDGRLPELSVEQIGDQLSLAVDRVMTEGGIADRELAALALKQASGDNIEAIFLLRAYRTTLPRLAVSEPINTAEMRLERRISAVYKDIPGGQLLGPTYDYTHRLLDFTLLANGEAPSVQQADGEAEPTPHVFSLLTQQGLAKTEEDRGTPPDDITRTPPVYPCSRSSRLQQLMRGDEGYLLALAYSTQRGYGRNHPFAGEIRSGYVQVEIVPEELGFSVNIGELLLTECEMVNGFVAPQEEPPHFTRGYGLTFGMSERKAMAMALVDRALQAPDYDEEIAGPAQDEEFVLAHADNVEAAGFVSHLKLPHYVDFQAELALLKRLQRENERG
MGSDKIHHHHHHNGPIVKGSKNYITKKENLEHFNDISMSGSANIIYQQDSSSRIEIYGSDNIVELLETKVNGKTLNIKFKKNVNIIDKGKLEIKVFSPDLNGLTLNGSGGILFANGIHTEGDLKVTINGSGNLGGSTFDTGHLAISIHGSGDVRLKQIDSKTCSASISGSGNITLDGMTGAAKYNISGSGNIKAADLEATDVYAGISGSGNISCFVNGKLGGHVSGSGNVAYKGNPQAIDFPHKKLRKLD
MGSDKIHHHHHHNRASAQTVSEKDATSTQAPVFLTYTVTKENETVEIVGQVTADTKKVTSKVSGDVLEIYVEEGDVVQVGQKIAKIDDTDYQISYLSALNSYKTSPTEINRLNLEKAKENLENTTVVSPVSGVVQAVNVDVGDRVSVGTSIVTIVETDTLRVEGSISEYDLKNVKEGMKAVFTFEQLGLTLTGKVKRISPVAETSGGVTVIPVEFSFDQTPPSLVIPGLTCDVEIIIKEATSSFFIPKEAVRQDQNGYYVMKQTPQGPQKVYVELGEELNDKIEIKKGVSEGDVLLLIPSQQEIQRLRTRQGLPMFGPGGGRAR
MGSDKIHHHHHHQEAKGSADETKVEVQYLDPRDPFEGFNRAMWDFNYLYLDKYILKPVAHGYNDYLPLPVKDGVHNFTTNFDEPSSLVNNILQGKWSWAANAGGRFTVNTSLGILGIFDVAQMMGMERKQDDFSEVLGFYGVPNGPYFMAPFFGPFVTREIASDWVDGLYFPLSELTMWQSALKWGMKSLHNRAEAIDRERLLDNALDPYAFVKDAYFQHVDYKVYDGNVPTTQEDDELLDEFMEELE
MGSDKIHHHHHHQLVLAPADAERYAQNSFPEYLELLTLQNDAAVPADIQRNADWLEKAFQKRGFTTQTLTNGDKPLVYAEFGAAKSDRKTILFYMHFDGQPVNPSEWQTPPWQPVLKEKDAAGKWQTLPESRLLKGDINPEWRIFARASADDKGPIVMFLAAMDAMKEKGVEPAVNIKVLLDSEEEKGSPGLTTVMADHLMLLKSDGMVIYDGAMPSSNRPGINFGNRGSIQIDMTVFGANAAAHSGGYGNVIPNPVQNLATLLASMKDADGKVTIPGYYDRVTLSDSDKKQVAETSPPAGSLEKRFGVAQLDKVAGNAAEAVQYPSLDILGIKAGETGKKASNAIPSTATASVNIRTVPETPPDDMYALLRQYIASKGFHIIAGESPTQAEREQYPHLISLHLTAYPSSAYAARTEIDSPLGHWAVATTTAPRGIAPEKNRMMGGTLPMSGAVSVLKVPYVIVPLVNADNNQHSFDENLRLGNYLEGIRTIVAMATTPLS
MGSDKIHHHHHHQTDTSDERATDSTTAEVTIIYNDERDPLEGFNRAMWDFNYQFLDKYFYRPVAHGYNDILPRPVKTGVNNFVLNFEEPSSMVNNALQGKWGWAANAGGRFTINTTIGLLGVIDVADMMGLQRKQDEFNEVLGYYGVPNGPYFMAPFLGPYVTRELASDWVDGLYFPLSELTMWQSLAKWGLKNLHRRASAIDQERLVDNALDPYTFVKEAYFQHLDYKVYDGDIPVSTDDDELLDEYMTELD
MGSDKIHHHHHHSHKYTAITPGVEWLDTNNEKINAHGGGILYHEGIYYWYGECKSDSTYWNPNVPGWECYRTEAGGVNCYSSKDLLNWKYEGLVLQPEISDTQSDLHPSKVLERPKVIYNDKTKKFVMWLHVDSDDYNKAAAGVAVSDSPTGVFTYLGSMHPNGQISRDMTLFKDDDGKAYHIYSSEQNSTLYISLLSDDYLKPSGTFTRNFAGKFREAPAVFKHNGLYYVISSGCTGWSPNEAEYAVATQILGPWTVKGNPCVGKDADKTFYGQSTHVLPIQGKKDAYIAMFDKWNKTDLIHSTYIWLPIQFREDGSMAIQWLDSWSPDTYEF
MGSDKIHHHHHHTIVSCSDDKGEDGYNPNLPVRISELSPQEGGYFDKVILQGENFGNNPKKVRVFFNKKEAIVVGASGDRVLVHVPKLPGDDCKIGMLLNGNTTDTIFAEKHFAYEKNYQLIYVAGQLNSNTETFVEGSLETTTFANSMQHLACDPSGVIYMNHKNQVKVAVLFTLMNLRTTLSFWIMEHLLKTEARLALRIMMTKQRRFTSVRTMLHFFGKLILRIHGLL
